The values below are quoted from earlier work in PMC5874815.

This series concerns the target EGFR (Homo sapiens) (UniProt P00533).

pKd: −log10 of the molar value.

By pKd is commonly meant the negative decadic logarithm of the Kd, by convention in mol/L. In the case of EGF (from UniProt P01133), the pKd is 8.70.
